The target of the assay is T1, human sirtuin 2 (human, UniProt Q8IXJ6 1-389).
T1 construct: sirtuin 2 (Sirt2), human; also called Sirt2
T1 sequence (looked up): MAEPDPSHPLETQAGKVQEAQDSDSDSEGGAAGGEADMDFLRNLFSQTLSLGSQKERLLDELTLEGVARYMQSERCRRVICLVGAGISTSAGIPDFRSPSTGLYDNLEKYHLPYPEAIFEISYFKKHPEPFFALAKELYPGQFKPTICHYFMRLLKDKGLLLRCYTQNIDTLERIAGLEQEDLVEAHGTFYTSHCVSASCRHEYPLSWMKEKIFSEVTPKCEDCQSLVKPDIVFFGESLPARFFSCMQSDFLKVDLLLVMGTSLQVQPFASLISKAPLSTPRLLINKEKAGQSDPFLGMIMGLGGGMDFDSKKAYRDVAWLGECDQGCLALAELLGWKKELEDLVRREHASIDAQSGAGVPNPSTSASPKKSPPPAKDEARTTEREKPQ
Kind of assay: enzyme inhibition kinetics (continuous fluorescence activity assay); 96-well MTP fluorescence reader; kcat and KM for substrate 3 recorded at varying inhibitor concentrations (0.01-600 μM); 500 μM NAD+; 20 mM TRIS/HCl pH 7.8, 150 mM NaCl, 5 mM MgCl2; 37 °C; Ki from competitive and non-competitive inhibition models. The note with it: both partners purified.

Primed or numbered codes have the meaning given here. *: point of attachment. thiosuccinyl = lysine reacted with methyl 3-[(methylthio)thiocarbonyl]propanoate, then 1 M NaOH (thioxo peptide), O=C(O)CCC(=S)*; thioacetyl = lysine reacted with ethyl dithioacetate (thioxo peptide), CC(=S)*; Bz′ = not defined here

What is called Ki is the equilibrium dissociation constant of an inhibitor or competing ligand from its target. Higher therefore signals lower affinity.

Take {Bz′}-GVLK(thioacetyl)EYGV-NH2 (source: synthetic peptide) [thioxo peptide 10 based on the CPS1 peptide]: the Ki is 0.3 ± 0.1 µM.

For the molecule {Bz′}-GVLK(thiosuccinyl)EYGV-NH2 (source: synthetic peptide) [thioxo peptide 11 based on the CPS1 peptide], the affinity, expressed as Ki, was 50 ± 9.9 µM.

For the origin of these results see article PMC4778124, “A continuous sirtuin activity assay without any coupling to enzymatic or chemical reactions” (Scientific Reports, 2016).
